Data as given in article PMC12707108, “CpoS-Inc interactions facilitate host cell modulation during Chlamydia trachomatis infection” (Infection and Immunity, 2025).
Where “and” joins values, the source holds several entries; their conditions need not be identical. Equal entries are not always repeated.

Legend:
[1] = biological target: MBP-InaC C-ter (Chlamydia trachomatis serovar L2 (LGV 434/Bu)); test: SEC + other: mass photometry + native gel or EMSA; purified MBP-tagged proteins; Superdex 200 SEC, mass photometry of SEC fractions in DPBS, native PAGE
[2] = biological target: MBP-IPAM C-ter (Chlamydia trachomatis serovar L2 (LGV 434/Bu)); test: as above
[3] = biological target: the molecule itself; test: not stated; CpoS C-ter in acidic and basic buffer conditions (Fig. S3C)
[4] = biological target: the molecule itself; test: mass photometry; fractions of MBP-CpoS C-ter from Superdex 200 SEC (13 and 14 mL); 100 nM protein added to DPBS, room temperature
[5] = biological target: the molecule itself; test: SEC + other: mass photometry + native gel or EMSA; purified MBP-tagged proteins; Superdex 200 SEC, mass photometry of SEC fractions in DPBS, native PAGE

Molecule: MBP-InaC C-ter (domain or fragment)
- stoichiometry N [1]: 2 and 3

Molecule: MBP-IPAM C-ter (domain or fragment)
- stoichiometry N [2]: 2 and 3

B1: MBP-CpoS C-ter (domain or fragment)
chain: RARSRRVEIERQLEVVSMQIEELEEEYKALSEVYRANLEARRAVSKYCQELEEKILDLCKRHAATICSIEEDAKQEIRHQTERFKQRLQQNQNTCSQLTAELCKLRSENKALSERLQVQASRRKK
notes: also called MBP-tagged CpoS C-ter; MBP-tagged CpoS; source: E. coli BL21 (DE3), purified (amylose resin, Superdex 200)
- stoichiometry N [3]: 2
- stoichiometry N [4]: 4 and 8

B2: MBP-IncA C-ter (domain or fragment)
chain: QKTANLHLYQDLQREVGSLKEINFMLSVLQKEFLHLSKEFATTSKDLSAVSQDFYSCLQGFRDNYKGFESLLDEYKNSTEEMRKLFSQEIIADLKGSVASLREEIRFLTPLAEEVRRLAHNQESLTAAIEELKTIRDSLRDEIGQLSQLSKTLTSQIALQRKESSDLCSQIRETLSSPRKSASPSTKSS
- stoichiometry N [5]: 4
